These are literature values, as cited in publication PMC7662862.

Broadly, the Kd is the free concentration of one partner at which half of the binding sites on the other are occupied at equilibrium, for simple one-to-one binding.

In data set [1] the target is Merlin N-terminal part (FERM) (Homo sapiens) (UniProt P35240). The data set can be described thus: SPR. Background: Surface plasmon resonance follows binding to a sensor surface in real time, without labels.
In another data set the target is CRB3 (Homo sapiens) (UniProt Q9BUF7). The data set can be described thus: ITC.
Chain of UniProt Q9BUF7 (Q9BUF7 27-120): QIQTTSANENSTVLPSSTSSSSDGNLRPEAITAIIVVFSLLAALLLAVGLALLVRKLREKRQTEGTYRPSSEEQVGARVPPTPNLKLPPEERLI

Chain of UniProt P35240 (P35240 22-311): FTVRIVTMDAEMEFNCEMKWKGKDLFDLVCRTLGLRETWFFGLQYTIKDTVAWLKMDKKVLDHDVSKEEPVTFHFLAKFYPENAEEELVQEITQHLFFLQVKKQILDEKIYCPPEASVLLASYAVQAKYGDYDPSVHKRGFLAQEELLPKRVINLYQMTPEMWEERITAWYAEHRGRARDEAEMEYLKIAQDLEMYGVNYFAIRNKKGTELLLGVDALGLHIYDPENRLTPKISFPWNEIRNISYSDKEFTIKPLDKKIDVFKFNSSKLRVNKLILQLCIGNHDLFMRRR

As for MPP1 (from UniProt Q00013), the Kd in data set [1] was 3.7 nM.

Regarding MPP5 PDZ-SH3-GUK (from UniProt Q8N3R9), in the data set with CRB3 (Homo sapiens), the dissociation constant (Kd) is 70 nM.
